Test results published in article PMC9831982 (Nature Communications, 2023).

B1: Cue3 as imaged by HS-AFM in the Slh1/Cue3 complex (natural protein, S. cerevisiae, UniProt P53137 1-624, looked up)
chain: MLSRYNRVIEINGGNADISLPIVKFPPFKLRAQLIEKDPVVWLHLIETYVTYFEYLMQGANVELLDESTLDHLRLFLRTYLHEIADEEGKLLSLGINHDVSEQLYLLKGWIFSLIKKCGLLHLQIFGDSLWNLIKVYVRRNPDSIRGLIDGSLKPRINTQRVQLDKSYQVQQHLKQLIESGKFKRIDLRCVEDLLSAKSMQPNKFAENFFTANWIEILEALWAKGQGRGHKEARELIIISLFSVSADRLLKITKELGISNFETLALYPLLGTMLINEGVHKRLPDLKSKLLFLNLGGLSMDEGDHMSYPTSSGTEVNEEQLSALMELFPQFSKYQLSQTLLAYDNNIELVTNKIFEDPTIIEAFSREPAEEEVEPVSDGDNASFTEELSILDRGDSSKNKELDKKIISEGVPDELRNKTLTRALKLLYEADEDERDDTYDEADVNRSDPSKRIGLQEDEESYDTKDDSNEVRQDHNYHIVEAYLWNLLKEDPKLFERSKRGTKVRKTMKEMTSWSDEKIEGWCRMLERSPTRARLLEKKFMFKGNSKTGKTSYVHNRDSQNDGNVVKEQAKQKKSENIKKHEPQSTEQKKRQHAKNEKRKGARANHNRKKGHDKKLARAGNNAI
notes: Cue3 (RQT3), S. cerevisiae
B2: Rqt4 as imaged by HS-AFM in the Slh1/Rqt4 complex (natural protein, S. cerevisiae, UniProt P36119 1-530, looked up)
chain: MTRKQAIDYAIKQVPQILPLEESDVKALCEQVLSTSSDDPEQIASKFLEFLGHEDLSFEFVMKFNELLNQNDKKEEKKTKNVHLEHTAPTSWKNESKQPTNNYINKKGDEKPKKLKDEKKSSTTRPTVQPSNQSTQSNPIKEKKEHRSKGKLQSLQEIDEAIKMLELRDSGSSKNCNCQGTRHPVFDIAPNCLHCGKVVCVIEGLNKGKCGHCHEQLISDNERTQMVEILNQEKNELNGSSSSLSNASNGANVPKKKTKTYKITSGMGKNLFAEQDKLFDFIERKRERERKRNEVLKLQEEKEESEAKERQASEHDHKAEENPELLAAQERLDRLLYFQDTSAERTKIIDNASDFDMNQEVGLWGSARERALALKKQQRNLRKWEKVEKERNGRREKYVVSMNIGSNGKVTMTEVPKDTENVIAGSDDDISDISDEEDISDLKHIHALKSEINTTKSLENLHLQSKAWDYERDKKQFDRPTYVKKNSDTAQQNRKTEEKAHDMQAYDLKSRVQVDQNADASVEQNILAVL
notes: Rqt4, S. cerevisiae

Molecular target: T1, Slh1 (from SLH1-FTP, released by TEV protease) as imaged by HS-AFM (S. cerevisiae, UniProt P53327 1-1967)
T1 construct: Slh1 (RQT2), S. cerevisiae; The methods describe this purification for the wild-type and the double-mutant trimer; not shown: protein A (behind a TEV site), C-terminal, cleaved
Experiment: HS-AFM; purified complex (5 nM) on mica in RQT-AFM buffer (50 mM Tris pH 7.5, 100 mM NaCl, 10 mM MgCl2, 100 mM L-arginine, 10 µM ZnCl2), room temperature
Details: both partners purified

T1 sequence (P53327 whole entry): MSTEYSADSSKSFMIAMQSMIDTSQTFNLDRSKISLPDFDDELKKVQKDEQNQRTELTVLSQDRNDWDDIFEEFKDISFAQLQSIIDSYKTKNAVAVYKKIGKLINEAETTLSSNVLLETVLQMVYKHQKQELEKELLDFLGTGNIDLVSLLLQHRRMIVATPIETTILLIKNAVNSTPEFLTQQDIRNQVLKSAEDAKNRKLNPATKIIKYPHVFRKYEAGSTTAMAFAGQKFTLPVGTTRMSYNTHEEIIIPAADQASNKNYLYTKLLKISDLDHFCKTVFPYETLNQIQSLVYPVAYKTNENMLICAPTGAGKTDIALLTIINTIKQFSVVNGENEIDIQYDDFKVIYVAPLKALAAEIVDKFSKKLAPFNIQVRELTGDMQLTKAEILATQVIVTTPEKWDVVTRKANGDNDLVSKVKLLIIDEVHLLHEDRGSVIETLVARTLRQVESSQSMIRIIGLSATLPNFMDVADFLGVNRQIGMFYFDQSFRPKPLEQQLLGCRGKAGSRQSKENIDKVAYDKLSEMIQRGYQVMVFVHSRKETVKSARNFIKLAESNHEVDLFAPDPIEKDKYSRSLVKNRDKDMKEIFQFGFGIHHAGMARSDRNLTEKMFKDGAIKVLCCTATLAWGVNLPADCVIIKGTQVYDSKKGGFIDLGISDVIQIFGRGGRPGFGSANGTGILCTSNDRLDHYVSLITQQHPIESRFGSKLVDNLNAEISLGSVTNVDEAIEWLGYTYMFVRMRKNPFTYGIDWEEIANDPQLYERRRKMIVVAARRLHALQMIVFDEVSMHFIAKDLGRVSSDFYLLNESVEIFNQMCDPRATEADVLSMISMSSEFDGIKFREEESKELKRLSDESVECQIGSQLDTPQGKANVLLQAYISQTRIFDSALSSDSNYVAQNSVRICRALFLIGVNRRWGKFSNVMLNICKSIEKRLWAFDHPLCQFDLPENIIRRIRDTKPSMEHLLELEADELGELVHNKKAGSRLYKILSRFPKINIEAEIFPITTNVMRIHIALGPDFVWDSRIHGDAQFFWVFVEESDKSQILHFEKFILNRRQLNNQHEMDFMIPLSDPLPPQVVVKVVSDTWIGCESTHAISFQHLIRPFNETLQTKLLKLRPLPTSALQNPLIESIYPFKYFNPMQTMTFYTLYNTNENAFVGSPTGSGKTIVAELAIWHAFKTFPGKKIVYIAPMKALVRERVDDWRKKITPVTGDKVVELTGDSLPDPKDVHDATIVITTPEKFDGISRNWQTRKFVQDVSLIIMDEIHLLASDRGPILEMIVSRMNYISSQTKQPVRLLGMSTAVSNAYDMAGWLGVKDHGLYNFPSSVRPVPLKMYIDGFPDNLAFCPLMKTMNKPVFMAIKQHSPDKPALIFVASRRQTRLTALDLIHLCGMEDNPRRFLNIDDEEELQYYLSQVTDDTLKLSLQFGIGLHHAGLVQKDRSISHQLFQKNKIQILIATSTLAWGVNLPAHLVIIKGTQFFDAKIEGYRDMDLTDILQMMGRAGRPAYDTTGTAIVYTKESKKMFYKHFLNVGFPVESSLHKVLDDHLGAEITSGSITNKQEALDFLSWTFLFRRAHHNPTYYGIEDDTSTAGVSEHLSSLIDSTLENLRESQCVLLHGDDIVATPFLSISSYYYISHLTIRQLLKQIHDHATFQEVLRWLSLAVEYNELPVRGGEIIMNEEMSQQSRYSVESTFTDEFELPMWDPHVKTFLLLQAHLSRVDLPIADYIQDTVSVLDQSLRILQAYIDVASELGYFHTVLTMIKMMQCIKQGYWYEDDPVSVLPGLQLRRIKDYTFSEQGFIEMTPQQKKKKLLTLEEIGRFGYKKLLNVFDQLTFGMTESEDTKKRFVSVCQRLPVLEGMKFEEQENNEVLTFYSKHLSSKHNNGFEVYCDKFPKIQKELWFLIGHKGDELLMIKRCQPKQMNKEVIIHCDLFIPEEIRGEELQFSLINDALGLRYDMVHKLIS

| Binder | binding result |
| --- | --- |
| B1 | binds |
| B2 | binds |
